From patent US20080182978A1, “ANTI-NGF ANTIBODIES AND METHODS USING SAME” (RINAT NEUROSCIENCE CORP, priority 2002, published 2008)

Columns and labels:
[1] = test system: complete Freund's adjuvant (CFA)-induced chronic arthritis; experiment: CFA-induced chronic arthritis in rats, nociceptive response (vocalization test, Example 8); type: in vivo, rat; settings: for nociceptive response (vocalization): arthritic rats, E3 1 mg/kg or 911 10 mg/kg i.v. D14+D19, indomethacin 3 mg/kg/day p.o. 10 days
Description: […]. Analgesic effects of E3 and 911 were evaluated by the measurement of nociceptive response. Anti-inflammatory effects were evaluated by paw volume, arthritis index (inflammation score), body and hindpaws weight. […].
Five groups of 10 animals (5-weeks old male Lewis rats-LEWIS Lew/Ico, from Charles River Laboratories—Belgium) each were included in this study: Group 1: non arthritic rats/saline (vehicle), i.v. bolus, n=10; Group 2: arthritic rats/saline (vehicle), i.v. bolus, n=10; Group 3: arthritic rats/Indomethacin 3 mg/kg, p.o daily over 10 days, n=10; […]; Group 5: arthritic rats/911, 10 mg/kg, i.v. bolus, n=10. The doses were expressed in terms of free active substance (mg/kg). E3 and 911 were extemporaneously prepared in saline from the stock solution to the desired concentration. […]. All diluted solutions (before i.v. injection) were sterilized using a sterile filter unit of 0.20.μm. pH and osmolarity values of diluted solutions were measured before each i.v. injection. Before the first i.v., osmolarity (mosm/L) for saline, E3, and 911 were 278, 269, and 308 respectively; pH for saline, E3, and 911 were 5.93, 6.76, 6.71 respectively. Before the second i.v., osmolarity (mosm/L) for saline, E3, and 911 were 280, 270, and 309 respectively; pH for saline, E3, and 911 were 5.86, 6.72, and 6.59 respectively.
E3 or 911 or saline were administered by i.v. bolus injection on Day 14 and Day 19 after arthritis induction in a coded and random order with a volume of 5 mL/kg. The non arthritic group was given by i.v. bolus injection of saline on Day 14 and Day 19 with a volume of 5 mL/kg. Indomethacin was extemporaneously prepared in 1% methylcellulose. Indomethacin was administered by oral route (p.o.) once daily over 10 days from Day 14 to Day 23 after arthritis induction in a coded and random order with a volume of 10 mL/kg.
On Day 0 (D 0), arthritis was induced in 70 rats by intradermal injection into the tail of 0.05 ml of a Mycobacterium butyricum suspension.
The nociceptive response was evaluated by gentle flexion of the right and left hindpaw repeatedly 2 times at intervals of 4 to 5 sec with a finger of the operator (arthritic rats). The intensity of the level of vocalization was recorded for each animal for each hindpaw (2 times: on right hindpaw: s1 and s3; 2 times: on left hindpaw: s2 and s4). This evaluation was performed at the following times (after induction of arthritis): Day 14 (before i.v. bolus or p.o. administration); Day 18 (before the second i.v. bolus injection or 1 hr after p.o. administration); and Day 24 (5 days after the last i.v. bolus injection or 24 h after the last p.o. administration). All measurements were performed between 9:00 and 12:00 am except at D 14 (7:30-9:00 am) and D 24 (7:30-9:00 am).
All results were reported as Mean ±S.E.M. of 10 rats in each group at each time point. Paw volume was expressed in ml calculated from the mean value of the right and left paw volume. Arthritis index was calculated from the sum of the score obtained for each of the 4 paws. The nociceptive response was evaluated by the intensity of the level of vocalization recorded for each animal (mean of 4 values: 2 times/paw) in mV. The percentage inhibition of the nociceptive response was calculated from the mean value of the vehicle-treated arthritic group [(mean value of vehicle-treated arthritic group−mean value of treated arthritic group/mean value of vehicle-treated arthritic group)*100]. Body weight was expressed in grams. Hindpaws (left and right) weight was expressed in grams. Cytokine levels (IL-6, IL-1β, TNF-α and TGF-β1) of each hind paw was expressed in pg/ml. Circulating levels of TGF-β1 was expressed in pg/ml. Radiological index for each parameter (demineralization, erosions, periostal reaction, soft tissue damage, space joint, osteogenesis deformity) and total radiological index (total score) were calculated from the sum of the scores obtained for each parameter. […]

[2] = CFA arthritis rats, hematological parameters; type: in vivo, rat; settings: for effect on blood parameters compared to vehicle-treated arthritic group: E3 1 mg/kg or 911 10 mg/kg i.v. D14+D19, indomethacin 3 mg/kg/day p.o. 10 days; for Hematocrit / Hemoglobin / Platelets / Red blood cells / White blood cells: arthritic rats, E3 1 mg/kg or 911 10 mg/kg i.v. D14+D19, indomethacin 3 mg/kg p.o. over 10 days, D24
Description: On Day 24 (after paw volume and arthritis index measurements and test vocalization), under general anaesthesia using isoflurane (in a mixture of oxygen and nitrous oxide), the blood samples (about 800-1000 μl) was collected by capillary action with a micropipette from retroorbital sinus.
Blood collection for hematological parameters (groups 1-2-3-4-5: 50 vials): A part of blood sample was collected in tubes containing K3—EDTA (at least 100 μL). The determination of parameters were performed on the day of the collection and the samples were not stored. The hematological parameters including red blood cells, white blood cells, platelets, hemoglobin, hematocrit were measured with a hematology cell counter (D 24). Some hematological parameters were not measured due to the clotted samples (vehicle-freated non arthritic rat: #10; E3-treated arthritic rats: #59, #67; 911-treated arthritic rats: #16).

[3] = E3 1 mg/kg or 911 10 mg/kg i.v. D14+D19, indomethacin 3 mg/kg/day p.o., D24
[4] = E3 1 mg/kg or 911 10 mg/kg i.v., indomethacin 3 mg/kg/day p.o., D14
[5] = E3 1 mg/kg or 911 10 mg/kg i.v., indomethacin 3 mg/kg/day p.o., D18

Molecule	% inhibition of nociceptive response vs vehicle-treated arthritic group [1, 3] [%]	decrease of nociceptive response vs vehicle-treated arthritic group [1, 3] [mV]	% inhibition of nociceptive response vs vehicle-treated arthritic group [1, 4] [%]	% inhibition of nociceptive response vs vehicle-treated arthritic group [1, 5] [%]	decrease of nociceptive response vs vehicle-treated arthritic group [1, 5]	nociceptive response (vocalization) ([1]; D14 (before dosing)) [mV]	nociceptive response (vocalization) ([1]; D18) [mV]	nociceptive response (vocalization) ([1]; D24) [mV]	effect on blood parameters compared to vehicle-treated arthritic group [2]	Hematocrit [2] [%]	Hemoglobin [2] [g/dL]	Platelets [2]	Red blood cells [2]	White blood cells [2]	analgesic effects in arthritis model (conclusion) ([1]; E3 1 mg/kg i.v., 911 10 mg/kg i.v., D14+D19)
COc1ccc2c(c1)c(CC(=O)O)c(C)n2C(=O)c1ccc(Cl)cc1 [Indomethacin, reference compound]	74	~−4353	0	71	about −3768 mV	4386±235	1511±398	1552±508	did not affect the blood parameters	35.0 ± 1.5	11.8 ± 0.6	705 ± 111 10^3/mm^3	6.93 ± 0.31 10^6/mm^3	21.7 ± 2.5 10^3/mm^3	–
E3: humanized, affinity matured anti-NGF antagonist antibody; variable regions SEQ ID NO:1 and 2; human IgG2a (A330P331 to S330S331), kappa (antibody, V domains shown, human IgG2a constant (A330S/P331S) and kappa constant missing) VH: QVQLQESGPGLVKPSETLSLTCTVSGFSLIGYDLNWIRQPPGKGLEWIGIIWGDGTTDYNSAVKSRVTISKDTSKNQFSLKLSSVTAADTAVYYCARGGYWYATSYYFDYWGQGTLVTVS VL: DIQMTQSPSSLSASVGDRVTITCRASQSISNNLNWYQQKPGKAPKLLIYYTSRFHSGVPSRFSGSGSGTDFTFTISSLQPEDIATYYCQQEHTLPYTFGQGTKLEIKRT	100	~−5905	0	79	about −4167 mV	4644±367	1112±401	0±0	did not affect the blood parameters	38.5 ± 1.0	12.9 ± 0.3	827 ± 77 10^3/mm^3	7.74 ± 0.17 10^6/mm^3	19.1 ± 1.2 10^3/mm^3	strong analgesic effects
